In IntAct's records for PubMed 19150989:

B1: BBSome complex member BBS1 (Homo sapiens), Q8NFJ9 (parent)
chain: MAAASSSDSDACGAESNEANSKWLDAHYDPMANIHTFSACLALADLHGDGEYKLVVGDLGPGGQQPRLKVLKGPLVMTESPLPALPAAAATFLMEQHEPRTPALALASGPCVYVYKNLRPYFKFSLPQLPPNPLEQDLWNQAKEDRIDPLTLKEMLESIRETAEEPLSIQSLRFLQLELSEMEAFVNQHKSNSIKRQTVITTMTTLKKNLADEDAVSCLVLGTENKELLVLDPEAFTILAKMSLPSVPVFLEVSGQFDVEFRLAAACRNGNIYILRRDSKHPKYCIELSAQPVGLIRVHKVLVVGSTQDSLHGFTHKGKKLWTVQMPAAILTMNLLEQHSRGLQAVMAGLANGEVRIYRDKALLNVIHTPDAVTSLCFGRYGREDNTLIMTTRGGGLIIKILKRTAVFVEGGSEVGPPPAQAMKLNVPRKTRLYVDQTLREREAGTAMHRAFQTDLYLLRLRAARAYLQALESSLSPLSTTAREPLKLHAVVQGLGPTFKLTLHLQNTSTTRPVLGLLVCFLYNEALYSLPRAFFKVPLLVPGLNYPLETFVESLSNKGISDIIKVLVLREGQSAPLLSAHVNMPGSEGLAAA

Variants of: B1
Settings: with Lepr

Row | effect of a mutation on the interaction | Variant
1 | decreasing interaction | MAAASSSDSDACGAESNEANSKWLDAHYDPMANIHTFSACLALADLHGDGEYKLVVGDLGPGGQQPRLKVLKGPLVMTESPLPALPAAAATFLMEQHEPRTPALALASGPCVYVYKNLRPYFKFSLPQLPPNPLEQDLWNQAKEDRIDPLTLKEMLESIRETAEEPLSIQSLRFLQLELSEMEAFVNQHKSNSIKRQTVITTMTTLKKNLADEDAVSCLVLGTENKELLVLDPEAFTILAKMSLPSVPVFLEVSGQFDVEFRLAAACRNGNIYILRRDSKHPKYCIELSAQPVGLIRVHKVLVVGSTQDSLHGFTHKGKKLWTVQMPAAILTMNLLEQHSRGLQAVMAGLANGEVRIYRDKALLNVIHTPDAVTSLCFGRYGREDNTLIRTTRGGGLIIKILKRTAVFVEGGSEVGPPPAQAMKLNVPRKTRLYVDQTLREREAGTAMHRAFQTDLYLLRLRAARAYLQALESSLSPLSTTAREPLKLHAVVQGLGPTFKLTLHLQNTSTTRPVLGLLVCFLYNEALYSLPRAFFKVPLLVPGLNYPLETFVESLSNKGISDIIKVLVLREGQSAPLLSAHVNMPGSEGLAAA [M390R]
